The results in this text go back to patent US20260008852A1 (CRYSTAL BIOSCIENCE, published 2026).

The labels stand for the following.
T1: B7-H3 on CHO-K1 cells stably transfected with B7-H3 (GenScript #M00536) (UniProt Q5ZPR3 29-534, limits assumed)
T1 sequence (looked up): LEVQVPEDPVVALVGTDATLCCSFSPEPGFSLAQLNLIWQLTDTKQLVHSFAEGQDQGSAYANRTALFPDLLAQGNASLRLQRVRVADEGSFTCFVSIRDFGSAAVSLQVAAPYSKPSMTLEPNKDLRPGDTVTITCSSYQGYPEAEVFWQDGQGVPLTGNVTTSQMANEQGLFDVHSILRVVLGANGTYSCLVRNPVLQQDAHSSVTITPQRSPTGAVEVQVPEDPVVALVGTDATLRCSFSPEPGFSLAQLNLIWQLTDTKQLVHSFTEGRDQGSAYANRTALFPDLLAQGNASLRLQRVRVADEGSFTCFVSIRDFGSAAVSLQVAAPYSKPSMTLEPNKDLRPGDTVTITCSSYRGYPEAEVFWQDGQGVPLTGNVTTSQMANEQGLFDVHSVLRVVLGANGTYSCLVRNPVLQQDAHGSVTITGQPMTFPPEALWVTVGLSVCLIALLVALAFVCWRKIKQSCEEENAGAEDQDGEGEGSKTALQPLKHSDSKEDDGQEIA

B1: 40633p1.1.F2 IgG (antibody, V domains shown)
VH: EVQLLESGGGLVQPGGSLRLSCVASGLTFNGFAMTWVRQAPGKGLEWVSGISWNSGSIYYADSVKGRFTISRDNSKNTVYLQMSSLRAEDTAIYYCAKNWNDYYNSMDVWGQGTTVTVSS
VL: QSVLTQPPSASGTPGQRVTISCSGSRSNIGTKYVYWYQQFPGTAPKLLIYTTDRRPSGVPDRFSGSKSGTSASLAISGLQSEDEADYYCSAWDDRLNAWVFGGGTKLTVL
B2: 40633p1.1.H11 IgG (antibody, V domains shown)
VH: EVQLLESGGGLVQPGGSLRLSCAASGFTFSSYPMTWVRQAPGKGLEWVADINSGGGTTLYADAVKGRFTISRDNSKNIVYLQMNSLRGEDTAVYYCAKHLDYYSYGMDVWGQGTTVTVSS
VL: QSVLTQPPSASGTPGQRVTISCSGVTSKIGSKYVHWYQQLPGTAPKLLIYRNFERPSGVPDRFSGSTSGTSASLAISGLQSEDEADYYCATWEGALNGWVFGGGTKLTVL
B3: 40511p1.2.A4 IgG (antibody, V domains shown)
VH: DVQLVESGGGVVRPGESLRLSCAASGFTFSSYAESWVRQAPGEGLEWVSIISGSGGNTFYADSVKGRFTISRDNSKNTLYLQMNSLRAEDTAVYYCARFAYGFFDYWGLGTLVTVSS
VL: EIVLTQSPGTLSVSPGERATLSCRASQTVGSKLAWYQQKPGQAPRLLIYDASTRATDIPDRFSGSGSGTDFTLTISSLQSEDFAVYYCQQYRNWPPLTFGGGTKVEIK
B4: 40511p1.2.G10 IgG (antibody, V domains shown)
VH: DVQLVESGGGVVRPGESLRLSCAASGFTFSNYAMNWVRQAPGEGLEWVSRINYKGYNITYYADSVKGRFTISRDNSKNTLYLQMNSLRAEDTAVYYCAKSGSNSNNFFDYWGLGTLVTVSS
VL: B3 VL with V13L, D50G, D70E, R92I, T98S
B5: 40579p1.C2 IgG (antibody, V domains shown)
VH: EVQLLESGGDLVQPGGSLRLSCAASGFNFSSYWMSWVRQAPGKGLEWVSGISISYGGNAYYADSVKGRFTVSRDNSKNTLYLQMNSLRAEDTAVYYCGRDRSPYQYRSMDVWGQGTTVTVSS
VL: B3 VL with G9A, L21F, V29I, S31N, Y49F, D50S, R92N
B6: 40633p1.1.G7 IgG (antibody, V domains shown)
VH: EVQLLESGGGLVQPGGSLRLSCAASGFTFSGSAMNWVRQAPGKGLEWVSAINSGGTTIYYADSVKGRFTVSRDNSKNTLYLQMNSLRAEDTAVYYCVKLDFYYGMDVWGEGTTVTVSS
VL: QSVVTQPPSASGTPGQRVTVSCSGSSSNVGSKYVQWYQQLPGTAPKLLIYATDRRPSGVPDRFSGSKSGTSASLAISGLQSEDEADYYCASWDDSLNAWVFGGGTKLTVL
B7: 40633p1.1.D11 IgG (antibody, V domains shown)
VH: EVQLLESGGGLVQPGGSLRLSCAASGFTFRSYAMSWVRQAPGKGLEWVAYIGSSGGTTYYADSVKGRFTISRDNSKNTLYLQMNSLRAEDTAVYYCVKESYYYMDVWGQGTTVTVSS
VL: QSVLTQPPSASGTPGQRVTISCSATISNIDINRVSWYQQLPGTAPKLLIFNSQRPSGVPDRFSGSKSGTSASLAISGLQSEDEADYYCATWDDSLNSWVFGGGTKLTVL
B8: 40633p1.1.A7 IgG (antibody, V domains shown)
VH: EVQLLESGGGLVQPGGSLRLSCAASGFTVSYYGMSWVRQAPGKGLEWVSAIKQDGSEKYYADSVKGRFTISRDNSKNTLYLQMNSLRAEDTAVYYCARHWNDYSNAMNVWGQGTTVTVSS
VL: QSVLTQPPSASGTPGQRVTISCSGSTSNIGRESVYWYQQLPGTAPKLLIYTIDQRPSGVPDRFSGSKSGTSASLAISGLQSEDEAVYYCASWDASLNGWVFGGGTKLTVL
B9: 40633p1.1.G5 IgG (antibody, V domains shown)
VH: B8 VH with T28I, S30N, A40P, N77T, A106G
VL: QSVLTQPPSASGTPGQRVTISCSGSWSNIGSYNSHWYQKLPGTAPKLLIYTTDRRPSGVPDRFSGSKSGTSASLAISGLQSEDEADYYCGTWDDSLNVWVFGGGTKLTVL
B10: 40633p1.1.B3 IgG (antibody, V domains shown)
VH: B8 VH
VL: B8 VL with V86D, A90G, S91T, A94D, G98A
B11: 40633p1.1.E3 IgG (antibody, V domains shown)
VH: B8 VH
VL: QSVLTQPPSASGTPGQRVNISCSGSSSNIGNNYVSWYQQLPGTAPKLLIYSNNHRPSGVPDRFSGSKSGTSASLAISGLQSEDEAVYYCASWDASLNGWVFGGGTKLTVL
B12: 40633p1.1.G11 IgG (antibody, V domains shown)
VH: B8 VH with A50V, K58E, L86P, A106G
VL: B8 VL with I29V, R31D, E32R, S33Y, T51L, I52D, V86D
B13: 40633p1.2.A10 IgG (antibody, V domains shown)
VH: B8 VH with A50V, K58E, A106G
VL: B8 VL with I29V, R31D, E32R, S33Y, T51L, I52D, V86D
B14: 40579p1.D1 IgG (antibody, V domains shown)
VH: B5 VH with D10G, N28T, S31D, W33Y, G50S, N58T, A59T, V71I, G98A, Y106C
VL: EIVLTQSPGSLSLSPGERATLSCRASQSVNSDLAWYQQKPGQAPRLLIYAASSRATGIPARFSGSGSGTEFTLTISSLQSEDFAVYYCQQYNNWPPLTFGGGTKVEIK
B15: 40579p1.H7 IgG (antibody, V domains shown)
VH: B5 VH
VL: B14 VL with S10T, V29I, N30R, A50G
B16: 40579p1.D8 IgG (antibody, V domains shown)
VH: B5 VH with D10G, N28T, S31D, W33Y, G50S, N58T, A59T, V71I, G98A, Y106C
VL: B14 VL with S10T, V29I, N30R, A50N, A51T, S52V, S53T, I58V, A60D, N93S
B17: 40579p1.F7 IgG (antibody, V domains shown)
VH: B5 VH with D10G, N28T, S31D, W33Y
VL: EIVLTQSPGTLSLSPGERATLTCRASQSVGDFLAWYQQKPGQAPRLLIYGASTRAAGIPARFRGSGSGTDFTLTISSLQSEDFAVYYCQQYKNWPPLTFGGGTKVEIK
B18: 40579p1.G1 IgG (antibody, V domains shown)
VH: B5 VH with D10G
VL: B14 VL with S10T, V29I, N30R, A50G
B19: 40633p1.1.C11 IgG (antibody, V domains shown)
VH: EVQLLESGGGLVQPGGSLRLSCAASGFTFSSYWMSWVRQAPGKGLEWVAGINRNGGTTYYADSVKGRFTISRDNSKNTLYLQMNSLRAEDTAVYYCARWNDYDIMDVWGQGTTVTVSS
VL: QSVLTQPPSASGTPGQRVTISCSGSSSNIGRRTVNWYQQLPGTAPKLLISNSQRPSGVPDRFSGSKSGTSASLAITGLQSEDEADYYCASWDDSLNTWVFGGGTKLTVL
B20: 40633p1.1.E4 IgG (antibody, V domains shown)
VH: B19 VH with A49S, N52S, R53S, N54S, G56S, T57A
VL: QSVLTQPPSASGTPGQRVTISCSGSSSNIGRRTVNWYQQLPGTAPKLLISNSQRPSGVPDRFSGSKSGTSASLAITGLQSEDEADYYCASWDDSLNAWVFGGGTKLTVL
B21: 40633p1.2.C11 IgG (antibody, V domains shown)
VH: B19 VH with T57S, K76E, M83V
VL: QSVLTQPSSASGTPGQRVTISCSGSSSNVGRRAVNWYQQLPGTAPKLLISNSQRPSGVPDRFSGSKSGTSASLAISGLQSEDEADYYCATWDASLNSWVFGGGTKLTVL

Residue numbers refer to the chain shown, from its start.

For this test, the target named is T1, B7-H3 on CHO-K1 cells stably …. Description: cell-based or functional assay.
For the molecule B1, the “ADCC reporter assay, EC50 Value, CHOK1/B7-H3 cells” value (“ADCC reporter assay, EC50 Value” for short) amounted to 0.0214 µg/mL and the “ADCC reporter assay, Max RLU, CHOK1/B7-H3 cells” value (from here on “ADCC reporter assay, Max RLU”) amounted to 519000 RLU.

Turning to B2, the “ADCC reporter assay, EC50 Value” value is 0.0412 µg/mL and the “ADCC reporter assay, Max RLU” value turned out to be 798000 RLU.

For the molecule B3, the “ADCC reporter assay, EC50 Value” value was 0.0318 µg/mL and the “ADCC reporter assay, Max RLU” value was 548000 RLU.

As for B4, the “ADCC reporter assay, EC50 Value” value was about 0.0103 µg/mL and the “ADCC reporter assay, Max RLU” value stood at 893000 RLU.

Turning to B5, the “ADCC reporter assay, EC50 Value” value came to 0.0116 µg/mL and the “ADCC reporter assay, Max RLU” value was 843000 RLU.

Consider B6, for which the “ADCC reporter assay, EC50 Value” value stood at 0.0419 µg/mL and the “ADCC reporter assay, Max RLU” value was 656000 RLU.

Take B7: the “ADCC reporter assay, EC50 Value” value worked out at 0.0119 µg/mL and the “ADCC reporter assay, Max RLU” value came to 656000 RLU.

For the molecule B8, the “ADCC reporter assay, EC50 Value” value is about 0.0125 µg/mL and the “ADCC reporter assay, Max RLU” value worked out at 634000 RLU.

As to B9, the “ADCC reporter assay, EC50 Value” value came to 0.18 µg/mL and the “ADCC reporter assay, Max RLU” value came to 452000 RLU.

For the molecule B10, the “ADCC reporter assay, EC50 Value” value was 0.0227 µg/mL and the “ADCC reporter assay, Max RLU” value amounted to 680000 RLU.

Consider B11, for which the “ADCC reporter assay, EC50 Value” value was determined as 0.135 µg/mL and the “ADCC reporter assay, Max RLU” value turned out to be 625000 RLU.

Consider B12, for which the “ADCC reporter assay, EC50 Value” value was 0.0344 µg/mL and the “ADCC reporter assay, Max RLU” value was 725000 RLU.

Turning to B13, the “ADCC reporter assay, EC50 Value” value was 0.0471 µg/mL and the “ADCC reporter assay, Max RLU” value is 762000 RLU.

Regarding B14, the “ADCC reporter assay, EC50 Value” value was found to be 0.274 µg/mL and the “ADCC reporter assay, Max RLU” value was found to be 744000 RLU.

With B15, the “ADCC reporter assay, EC50 Value” value turned out to be 0.0126 µg/mL and the “ADCC reporter assay, Max RLU” value was determined as 833000 RLU.

With B16, the “ADCC reporter assay, EC50 Value” value came out at 0.075 µg/mL and the “ADCC reporter assay, Max RLU” value was determined as 728000 RLU.

For the molecule B17, the “ADCC reporter assay, EC50 Value” value stood at 0.0124 µg/mL and the “ADCC reporter assay, Max RLU” value amounted to 641000 RLU.

For B18, the “ADCC reporter assay, EC50 Value” value is 0.0115 µg/mL and the “ADCC reporter assay, Max RLU” value came out at 806000 RLU.

For the molecule B19, the “ADCC reporter assay, EC50 Value” value stood at 0.0173 µg/mL and the “ADCC reporter assay, Max RLU” value amounted to 719000 RLU.

For B20, the “ADCC reporter assay, EC50 Value” value is 0.0194 µg/mL and the “ADCC reporter assay, Max RLU” value turned out to be 676000 RLU.

Regarding B21, the “ADCC reporter assay, EC50 Value” value was about 1.56 µg/mL and the “ADCC reporter assay, Max RLU” value was determined as 94400 RLU.
